The target of the assay is Lactococcus lactis pyruvate carboxylase (Lactococcus lactis). Description: cryo-EM structure; LlPC under reaction conditions: 0.1 uM LlPC, 2 mM acetyl-CoA, 20 mM pyruvate, 2 mM ATP, 10 mM KHCO3, 5 mM MgCl2, 2 mM DTT, 200 mM NaCl, 20 mM Tris pH 7.6; symmetry expansion, focused classification of BC and CT domains.

For “Lactococcus lactis pyruvate carboxylase (enzyme)”, the stoichiometry N stood at 4.

In general, stoichiometry N refers to the number of molecules, sites or subunits per partner or assembly.

The values above are taken from paper PMC9581989.
